The target in this experiment is T1, His-tagged recombinant PHB2 (UniProt Q99623 1-299, limits assumed).
T1 construct: also called prohibitin 2; REA; not shown: His tag
Briefly: surface plasmon resonance (BiAcore) interaction analysis.

In general, Kd refers to the constant that tells how readily two partners part at equilibrium.

T1 sequence (Q99623 whole entry): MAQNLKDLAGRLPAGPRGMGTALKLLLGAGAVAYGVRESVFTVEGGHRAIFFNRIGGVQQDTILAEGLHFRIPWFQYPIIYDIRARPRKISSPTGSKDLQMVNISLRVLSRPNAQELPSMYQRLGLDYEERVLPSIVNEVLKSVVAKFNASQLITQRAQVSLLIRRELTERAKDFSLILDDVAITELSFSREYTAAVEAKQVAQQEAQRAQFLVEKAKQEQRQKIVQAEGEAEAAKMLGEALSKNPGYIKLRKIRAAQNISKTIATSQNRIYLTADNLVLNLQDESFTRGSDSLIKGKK

B1: 11R-ERAP (11R-GGG-QMLSDLTLQLRQR) (peptide)
peptide: RRRRRRRRRRRGGGQMLSDLTLQLRQR
notes: Unstapled control peptide, synthesized as in Yoshimaru et al. 2013; also called dominant negative peptide
In the case of B1, the Kd came out at 12.8 µM.

The values above are taken from patent publication US20190023739A1 (TOKUSHIMA UNIVERSITY, published 2019).
